Binding signal data for one molecule are collected here from US20260009052, “CAS12 PROTEINS AND USES THEREOF” (GUANGZHOU REFORGENE MEDICINE CO., LTD., published 2026).

For one data set, the target named is T1, C12-279 Mut-02 (synthetic construct, Q186R,D352R).
T1 chain: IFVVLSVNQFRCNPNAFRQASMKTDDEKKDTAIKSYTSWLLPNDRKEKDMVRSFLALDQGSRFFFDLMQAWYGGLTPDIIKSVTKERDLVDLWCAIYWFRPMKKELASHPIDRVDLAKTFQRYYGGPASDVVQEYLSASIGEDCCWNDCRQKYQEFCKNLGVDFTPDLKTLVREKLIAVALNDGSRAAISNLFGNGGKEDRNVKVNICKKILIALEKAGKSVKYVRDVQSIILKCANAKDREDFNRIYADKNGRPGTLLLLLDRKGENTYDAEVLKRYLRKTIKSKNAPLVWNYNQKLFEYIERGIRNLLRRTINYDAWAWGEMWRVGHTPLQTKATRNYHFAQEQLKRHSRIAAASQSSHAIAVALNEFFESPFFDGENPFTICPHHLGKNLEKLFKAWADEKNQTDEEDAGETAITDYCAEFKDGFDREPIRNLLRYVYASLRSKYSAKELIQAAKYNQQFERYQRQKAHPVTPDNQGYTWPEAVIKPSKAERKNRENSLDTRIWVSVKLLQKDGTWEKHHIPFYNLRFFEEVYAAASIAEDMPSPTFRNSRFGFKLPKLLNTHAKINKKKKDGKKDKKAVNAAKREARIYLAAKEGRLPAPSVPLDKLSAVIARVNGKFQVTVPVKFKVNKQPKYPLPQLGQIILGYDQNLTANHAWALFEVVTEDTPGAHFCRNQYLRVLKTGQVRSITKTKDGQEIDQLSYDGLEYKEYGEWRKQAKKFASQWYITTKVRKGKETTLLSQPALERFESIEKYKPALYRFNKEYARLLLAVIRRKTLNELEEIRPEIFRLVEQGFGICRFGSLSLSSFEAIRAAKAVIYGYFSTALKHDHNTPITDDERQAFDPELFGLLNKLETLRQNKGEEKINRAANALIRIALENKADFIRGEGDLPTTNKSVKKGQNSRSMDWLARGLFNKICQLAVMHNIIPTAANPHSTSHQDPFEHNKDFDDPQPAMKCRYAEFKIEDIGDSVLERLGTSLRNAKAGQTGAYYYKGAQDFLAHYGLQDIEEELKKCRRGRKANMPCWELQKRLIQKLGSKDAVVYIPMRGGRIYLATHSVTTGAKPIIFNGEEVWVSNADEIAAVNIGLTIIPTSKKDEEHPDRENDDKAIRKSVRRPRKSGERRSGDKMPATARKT
Description: cell_activity; PAM TTG; +/-0.25. On the procedure:
Transfection: transfection was performed 12-14 h after plating. 1.5 μL PEI (Yeasen Biotechnology, 40815ES03, Polyethylenimine Linear (PEI) MW25000) and 500 ng mutation clone plasmid were added to 100 μL Opti-MEM per well of the 24-well plate, mixed, and added to the NAAN cell line for cell transfection after placing at room temperature for 20 min. After overnight transfection, a fresh culture medium was replaced, and the culture was continued for 72 h, followed by flow cytometry. Editing efficiencies of different mutant clones were characterized by the proportion of GFP-positive cells.
Editing efficiency of some selected mutants was tested in Reporter3 cell line using the same manner as described for the NAAN reporter system, except that the cell line was changed from NAAN cell line to Reporter3 cell line.

The next data set concerns the target T2, C12-279 (synthetic construct).
T2 chain: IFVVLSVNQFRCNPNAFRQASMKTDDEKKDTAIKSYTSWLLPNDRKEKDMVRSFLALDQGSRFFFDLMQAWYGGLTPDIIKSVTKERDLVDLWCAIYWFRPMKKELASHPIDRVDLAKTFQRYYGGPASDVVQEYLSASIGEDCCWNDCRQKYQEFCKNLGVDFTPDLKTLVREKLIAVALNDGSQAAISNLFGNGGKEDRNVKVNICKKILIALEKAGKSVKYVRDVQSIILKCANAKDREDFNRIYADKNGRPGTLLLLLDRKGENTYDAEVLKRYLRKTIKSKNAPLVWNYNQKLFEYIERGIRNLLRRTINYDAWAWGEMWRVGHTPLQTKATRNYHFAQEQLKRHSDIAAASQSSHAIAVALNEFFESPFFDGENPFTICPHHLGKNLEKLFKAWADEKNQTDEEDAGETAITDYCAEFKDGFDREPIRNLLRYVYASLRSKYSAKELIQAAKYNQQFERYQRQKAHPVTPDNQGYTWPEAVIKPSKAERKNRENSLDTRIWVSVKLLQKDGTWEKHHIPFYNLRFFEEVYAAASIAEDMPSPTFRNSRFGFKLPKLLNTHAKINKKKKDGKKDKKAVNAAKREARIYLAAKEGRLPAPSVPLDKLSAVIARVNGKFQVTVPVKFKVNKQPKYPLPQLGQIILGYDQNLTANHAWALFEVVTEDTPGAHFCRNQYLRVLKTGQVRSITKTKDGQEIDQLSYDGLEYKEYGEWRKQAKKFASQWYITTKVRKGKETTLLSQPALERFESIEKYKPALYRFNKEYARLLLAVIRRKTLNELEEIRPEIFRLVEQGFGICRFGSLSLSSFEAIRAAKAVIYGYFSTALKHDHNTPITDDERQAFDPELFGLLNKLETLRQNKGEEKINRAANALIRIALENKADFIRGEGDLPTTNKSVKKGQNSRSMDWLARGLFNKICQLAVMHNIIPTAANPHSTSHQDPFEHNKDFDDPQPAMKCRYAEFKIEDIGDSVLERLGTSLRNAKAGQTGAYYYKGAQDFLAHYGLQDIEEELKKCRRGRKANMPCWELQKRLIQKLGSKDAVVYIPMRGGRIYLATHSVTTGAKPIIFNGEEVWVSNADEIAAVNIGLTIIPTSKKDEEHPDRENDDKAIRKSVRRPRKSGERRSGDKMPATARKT
In words: cell_activity; PAM TTG; GFP reporter. The following applies: tags: NLS.

B1: C12-279 Reporter3 sgRNA ; Reporter3 target (ssRNA ; dsDNA)
RNA: GUAAUGCGUCUCCCAUUGACGCCUCACCUCGCGACGCAAUGAUG
DNA 1: CTCACCTCGCGACGCAATGATG
DNA 2: CATCATTGCGTCGCGAGGTGAG
B1: the binding signal is 1.39 fold of C12-279 with C12-279 Mut-02 and 1 fold of C12-279 with C12-279.
